Source: patent US20150266962A1

Target: human IL-13Rα2 on the surface of human tumour cell lines (human) (UniProt Q14627)
Experiment: cell-based or functional assay

Chain of human IL-13Rα2 on the surface of human tumour cell lines (human) (Q14627 27-380): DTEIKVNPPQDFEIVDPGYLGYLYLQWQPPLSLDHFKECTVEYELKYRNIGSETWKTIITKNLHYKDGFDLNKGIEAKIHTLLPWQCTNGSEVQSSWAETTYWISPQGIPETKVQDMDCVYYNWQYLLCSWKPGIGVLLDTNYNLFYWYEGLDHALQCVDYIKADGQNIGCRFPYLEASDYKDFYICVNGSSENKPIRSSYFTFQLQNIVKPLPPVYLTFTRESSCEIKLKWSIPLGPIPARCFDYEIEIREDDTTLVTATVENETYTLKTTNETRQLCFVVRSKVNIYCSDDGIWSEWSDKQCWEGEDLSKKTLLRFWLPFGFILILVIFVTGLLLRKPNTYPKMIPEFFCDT

In the case of “hIgG8.8-vc-0101 non-binding control ADC (antibody)”, the IC50 (ng Ab/mL), in vitro cytotoxicity, A375 is reported as > 400000 ng Ab/mL and the IC50 (ng Ab/mL), in vitro cytotoxicity, PC3MM2 is reported as > 400000 ng Ab/mL.

For “hIgG8.8-mc-3377 non-binding control ADC (antibody)”, the IC50 (ng Ab/mL), in vitro cytotoxicity, A375 was > 400000 ng Ab/mL and the IC50 (ng Ab/mL), in vitro cytotoxicity, PC3MM2 was > 400000 ng Ab/mL.

With “ab27414 (Abcam), monoclonal mouse IgG1 anti-IL-13Rα2 (antibody)” the % internalization, 15 min, A375 was 49.3%, the % internalization, 15 min, H460R was 57.5% and the % internalization, 15 min, Hs766T was 60.8%. For the same substance, the % internalization, 15 min, PC3MM2 was 60.2%, the % internalization, 4 hours, A375 was 68.2% and the % internalization, 4 hours, H460R was 49.2%. For the same substance, the % internalization, 4 hours, Hs766T was 73.6% and the % internalization, 4 hours, PC3MM2 was 49.7%.
